Laboratory results taken from paper PMC3360003.

Columns and labels:
[1] = biological target: Influenza A virus matrix 1 (M1) protein with a C-terminal His6-tag (Influenza A virus A/chicken/Jiangsu/1/1998 (H9N2)); assay: SEC; […], pH 5.0, 25°C; […]
[2] = biological target: Influenza A virus matrix 1 (M1) protein with a C-terminal His6-tag (Influenza A virus A/chicken/Jiangsu/1/1998 (H9N2)); assay: SEC
[3] = biological target: Influenza A virus matrix 1 (M1) protein with a C-terminal His6-tag (Influenza A virus A/chicken/Jiangsu/1/1998 (H9N2)); assay: […]; 0.2% ([…], pH 8.0, room temperature, 5 min; […]

Measured: stoichiometry N

Influenza A virus matrix 1 (M1) protein with a C-terminal His6-tag (natural protein)
2: all assays above
